Target: T1, mouse MDM2 (Mus musculus, UniProt P23804)
T1 construct: gene PCR-cloned from mouse prostate cell line
Experiment: ELISA of MDM2 binding to immobilised biotinylated p53 peptides (peptide library, alanine and conserved substitution series)
Settings: consensus peptide and alanine substitution series, Example 3, FIG. 5
Procedure: The libraries were in the form of 15 mer peptides linked to biotin via an additional peptide spacer region of serine-glycine-serine-glycine, and each peptide shared a 5 amino acid overlap with the previous peptide in the primary sequence. ELISA plates were coated with 100 μof 5 μg/ml streptavidin (vector labs) per well and incubated overnight at 37° C. and then blocked with phosphate buffered saline (PBS) containing 2% bovine serum albumin (BSA) for 1 hour at room temperature. The stock biotinylated peptides were diluted to 5 μg/ml in PBS containing 0.1 BSA and 50 μl of each were plated into designed wells and then incubated at room temperature for 1 hour. […] In the case of cell extracts bound protein was detected with the appropriate primary antibody at 1-3 μg/ml, and followed by an anti-mouse horse radish peroxidase conjugate and 3'3'4'4'-tetramethyl benzidine (TMB) substrate as in the standard ELISA assay (Harlow, E., et al (1988). Antibodies: a laboratory manual. New York. Cold Spring Harbor Laboratory Press and Lane, 1988).
These libraries consisted of 15 amino acid long sections of the p53 primary amino acid sequence, that consecutively overlapped by 5 amino acids, and were each attached to biotin via a 4 amino acid long spacer. […] The results are presented alongside the ELISA readings for extract of insect cells alone not expressing mouse MDM2. […]

T1 sequence (P23804 whole entry): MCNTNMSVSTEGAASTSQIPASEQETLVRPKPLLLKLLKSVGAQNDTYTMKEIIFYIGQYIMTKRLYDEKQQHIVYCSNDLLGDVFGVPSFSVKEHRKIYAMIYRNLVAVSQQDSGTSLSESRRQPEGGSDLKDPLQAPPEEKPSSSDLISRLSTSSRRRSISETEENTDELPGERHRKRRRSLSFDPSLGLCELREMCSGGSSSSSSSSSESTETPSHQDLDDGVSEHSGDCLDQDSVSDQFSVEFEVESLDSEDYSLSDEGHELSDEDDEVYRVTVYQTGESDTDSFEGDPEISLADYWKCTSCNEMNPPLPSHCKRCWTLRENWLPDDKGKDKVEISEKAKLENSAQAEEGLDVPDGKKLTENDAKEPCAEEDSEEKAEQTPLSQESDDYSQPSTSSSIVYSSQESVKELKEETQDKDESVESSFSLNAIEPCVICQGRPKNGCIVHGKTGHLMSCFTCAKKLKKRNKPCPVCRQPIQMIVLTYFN

**Q.** QETFSDLWKL was tested. Which “level of MDM2 binding as measured by ELISA” value did it give?
**A.** Its value is “higher level of binding of MDM2”.
